Results on two molecules are retold here after patent US20120010388A1 (published 2012).

Assay [1] deals with T1, HER2 (UniProt P04626 23-1255, limits assumed). Briefly: cell-based or functional assay.
Assay [2] concerns the target T1, HER2. In words: flow cytometry on SKBR3 cells (HER2 and Lewis Y on the cells), PE anti-human Fc detection, half maximal staining intensity. As for the experimental part:
SKBR3 cells are cultured in RPMI1640 containing 10% fetal calf serum an 8 mM glutamine. The cells are harvested by trypsination. A total of 1×10⁵ cells in PBS containing 0.1% BSA are incubated with dilutions of the bispecific molecules or control proteins (anti-Lewis Y antibody IGN311 and anti-HER Fcabs respectively) in the range of 1 mM to 0.1 nM and incubated on ice for 20 min. After removal of excess of bispecific molecules or control proteins cells are incubated for 10 min on ice with phycoerythrin-R-coupled polyclonal anti-human FC antibody (Sigma). Measurements are performed on a FACS analyzer (FACS Calibur).
The half maximal staining intensity (EC50) is reached for molecule no. 1 at around 1 nM and for molecule no. 2 at around 10 nM.
For orientation: In flow cytometry, cells or beads pass a laser one at a time.

B1: molecule no. 1 (IGN311/Fcab 10-03-6) (bispecific antibody, human IgG1, kappa)
heavy: EVQLLESGGGLVQPGGSLRLSCAASGFTFSDYYMYWVRQAPEKRLEWVAYISNGGGSSHYVDSVKGRFTISRDNAKNTLYLQMNSLRAEDTALYHCARGMDYGAWFAYWGQGTLVTVSSASTKGPSVFPLAPSSKSTSGGTAALGCLVKDYFPEPVTVSWNSGALTSGVHTFPAVLQSSGLYSLSSVVTVPSSSLGTQTYICNVNHKPSNTKVDKKVEPKSCDKTHTCPPCPAPELLGGPSVFLFPPKPKDTLMISRTPEVTCVVVDVSHEDPEVKFNWYVDGVEVHNAKTKPREEQYNSTYRVVSVLTVLHQDWLNGKEYKCKVSNKALPAPIEKTISKAKGQPREPQVYTLPPSRDEYLHGDVSLTCLVKGFYPSDIAVEWESNGQPENNYKTTPPVLDSDGSFFLYSKLTVARYSPRMLRWAHGNVFSCSVMHEALHNHYTQKSLSLSPGK
light: DIVMTQSPLSLPVTPGEPASISCRSSQSIVHSNGNTYLEWYLQKPGQSPQLLISKVSNRFSGVPDRFSGSGSGTDFTLKISRVEAEDVGVYYCFQGSHVPFTFGQGTKLEIKRTVAAPSVFIFPPSDEQLKSGTASVVCLLNNFYPREAKVQWKVDNALQSGNSQESVTEQDSKDSTYSLSSTLTLSKADYEKHKVYACEVTHQGLSSPVTKSFNRGEC
notes: IgG: humanized anti-Lewis Y antibody IGN311 whose CH3 domain is replaced by the CH3 of the anti-HER2 Fcab 10-03-6
Consider B1, for which the “half maximal (50%) immediate cytotoxicity (EC50), 51Cr release from SKBR3 cells” value in assay [1] is approximately 1 nM. The concentration giving a half-maximal response (EC50) (in general, the midpoint of the concentration-response curve) in assay [2] is approximately 1 nM.

B2: molecule no. 2 (IGN311/Fcab H561G3M1G4) (bispecific antibody, human IgG1, kappa)
heavy: EVQLLESGGGLVQPGGSLRLSCAASGFTFSDYYMYWVRQAPEKRLEWVAYISNGGGSSHYVDSVKGRFTISRDNAKNTLYLQMNSLRAEDTALYHCARGMDYGAWFAYWGQGTLVTVSSASTKGPSVFPLAPSSKSTSGGTAALGCLVKDYFPEPVTVSWNSGALTSGVHTFPAVLQSSGLYSLSSVVTVPSSSLGTQTYICNVNHKPSNTKVDKKVEPKSCDKTHTCPPCPAPELLGGPSVFLFPPKPKDTLMISRTPEVTCVVVDVSHEDPEVKFNWYVDGVEVHNAKTKPREEQYNSTYRVVSVLTVLHQDWLNGKEYKCKVSNKALPAPIEKTISKAKGQPREPQVYTLPPSRDEFFTYWVSLTCLVKGFYPSDIAVEWESNGQPENNYKTTPPVLDSDGSFFLYSKLTVDRRRWTAGNVFSCSVMHEALHNHYTQKSLSLSPGK
light: B1 light
notes: IgG: humanized anti-Lewis Y antibody IGN311 whose CH3 domain is replaced by the CH3 of the anti-HER2 Fcab H561G3M1G4
Regarding B2, in assay [1], the “half maximal (50%) immediate cytotoxicity (EC50), 51Cr release from SKBR3 cells” value is approximately 10 nM. The same molecule gave an EC50 in assay [2] of approximately 10 nM.
